Values of other authors, collected in PMC3394898.

Biological target: NTSR1 (Mus musculus) (UniProt O88319)
UniProt O88319, sequence (O88319 whole entry): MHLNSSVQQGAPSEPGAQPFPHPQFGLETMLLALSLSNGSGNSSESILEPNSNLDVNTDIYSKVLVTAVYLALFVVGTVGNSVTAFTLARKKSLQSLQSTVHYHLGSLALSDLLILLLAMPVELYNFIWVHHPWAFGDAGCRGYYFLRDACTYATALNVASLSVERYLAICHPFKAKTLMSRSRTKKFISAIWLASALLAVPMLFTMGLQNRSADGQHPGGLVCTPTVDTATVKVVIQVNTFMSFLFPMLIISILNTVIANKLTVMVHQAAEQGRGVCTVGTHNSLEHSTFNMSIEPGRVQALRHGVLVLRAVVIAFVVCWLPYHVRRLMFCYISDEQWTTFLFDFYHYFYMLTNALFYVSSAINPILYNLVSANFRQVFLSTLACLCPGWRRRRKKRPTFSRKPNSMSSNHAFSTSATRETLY

Kd: 5 nM
Substance: neurotensin (NTS) (from UniProt P30990)
